Measurements published in the Human Domainome abundance scans (Beltran et al. 2025).
± gives the uncertainty stated by the source.

B1: Death-inducer obliterator 1, residues 263 to 321; numbered along this chain, Q9BTC0 (parent)
chain: GYDPNALYCICRQPHNNRFMICCDRCEEWFHGDCVGISEARGRLLERNGEDYICPNCTI

Variants of: B1
Assay: abundance fitness (aPCA) (normalised: wild type 0, dead -1); higher = more abundant; growth selection in yeast, the domain comes from the species named
Conditions: Homo sapiens

GYDPNALYCICRQPHNNRFMICCDRCWEWFHGDCVGISEARGRLLERNGEDYICPNCTI [E27W] and GYDPNALYCICRQPHNNRFMICCDRCPEWFHGDCVGISEARGRLLERNGEDYICPNCTI [E27P] are within error of each other in abundance fitness: -0.09 ± 0.076 for the first, -0.004 ± 0.082 for the second.

GYDPNALYCICRQPHNNRFMICCDRCVEWFHGDCVGISEARGRLLERNGEDYICPNCTI [E27V] and GYDPNALYCICRQPHNNRFMICCDRCQEWFHGDCVGISEARGRLLERNGEDYICPNCTI [E27Q] are within error of each other in abundance fitness: -0.193 ± 0.084 for the first, -0.066 ± 0.11 for the second.

GYDPNALYCICRQPHNNRFMICCDRCYEWFHGDCVGISEARGRLLERNGEDYICPNCTI [E27Y] and GYDPNALYCICRQPHNNRFMICCDRCSEWFHGDCVGISEARGRLLERNGEDYICPNCTI [E27S] are within error of each other in abundance fitness: 0.015 ± 0.067 for the first, -0.033 ± 0.053 for the second.

GYDPNALYCICRQPHNNRFMICCDRCTEWFHGDCVGISEARGRLLERNGEDYICPNCTI [E27T] and GYDPNALYCICRQPHNNRFMICCDRCLEWFHGDCVGISEARGRLLERNGEDYICPNCTI [E27L] are within error of each other in abundance fitness: -0.007 ± 0.067 for the first, -0.107 ± 0.05 for the second.

Going from GYDPNALYCICRQPHNNRFMICCDRCREWFHGDCVGISEARGRLLERNGEDYICPNCTI [E27R] to GYDPNALYCICRQPHNNRFMICCDRCEEPFHGDCVGISEARGRLLERNGEDYICPNCTI [W29P], the abundance fitness rises from -0.071 ± 0.047 to 0.05 ± 0.071.

GYDPNALYCICRQPHNNRFMICCDRCEETFHGDCVGISEARGRLLERNGEDYICPNCTI [W29T] and GYDPNALYCICRQPHNNRFMICCDRCEEIFHGDCVGISEARGRLLERNGEDYICPNCTI [W29I] are within error of each other in abundance fitness: 0.242 ± 0.058 for the first, 0.225 ± 0.064 for the second.

Compared with GYDPNALYCICRQPHNNRFMICCDRCEEAFHGDCVGISEARGRLLERNGEDYICPNCTI [W29A], GYDPNALYCICRQPHNNRFMICCDRCEEHFHGDCVGISEARGRLLERNGEDYICPNCTI [W29H] is lower in abundance fitness: 0.161 ± 0.056 for the first, -0.02 ± 0.12 for the second.

Compared with GYDPNALYCICRQPHNNRFMICCDRCEELFHGDCVGISEARGRLLERNGEDYICPNCTI [W29L], GYDPNALYCICRQPHNNRFMICCDRCEEGFHGDCVGISEARGRLLERNGEDYICPNCTI [W29G] is lower in abundance fitness: 0.215 ± 0.049 for the first, -0.02 ± 0.067 for the second.

GYDPNALYCICRQPHNNRFMICCDRCEECFHGDCVGISEARGRLLERNGEDYICPNCTI [W29C] and GYDPNALYCICRQPHNNRFMICCDRCEEKFHGDCVGISEARGRLLERNGEDYICPNCTI [W29K] are within error of each other in abundance fitness: 0.045 ± 0.084 for the first, 0.2 ± 0.12 for the second.

GYDPNALYCICRQPHNNRFMICCDRCEEYFHGDCVGISEARGRLLERNGEDYICPNCTI [W29Y] and GYDPNALYCICRQPHNNRFMICCDRCEESFHGDCVGISEARGRLLERNGEDYICPNCTI [W29S] are within error of each other in abundance fitness: 0.064 ± 0.12 for the first, 0.17 ± 0.042 for the second.

GYDPNALYCICRQPHNNRFMICCDRCEENFHGDCVGISEARGRLLERNGEDYICPNCTI [W29N] and GYDPNALYCICRQPHNNRFMICCDRCEEEFHGDCVGISEARGRLLERNGEDYICPNCTI [W29E] are within error of each other in abundance fitness: 0.224 ± 0.14 for the first, 0.277 ± 0.1 for the second.

GYDPNALYCICRQPHNNRFMICCDRCEEDFHGDCVGISEARGRLLERNGEDYICPNCTI [W29D] and GYDPNALYCICRQPHNNRFMICCDRCEERFHGDCVGISEARGRLLERNGEDYICPNCTI [W29R] are within error of each other in abundance fitness: 0.025 ± 0.18 for the first, 0.173 ± 0.056 for the second.

GYDPNALYCICRQPHNNRFMICCDRCEEVFHGDCVGISEARGRLLERNGEDYICPNCTI [W29V] and GYDPNALYCICRQPHNNRFMICCDRCEEMFHGDCVGISEARGRLLERNGEDYICPNCTI [W29M] are within error of each other in abundance fitness: 0.252 ± 0.056 for the first, 0.176 ± 0.083 for the second.

GYDPNALYCICRQPHNNRFMICCDRCEIWFHGDCVGISEARGRLLERNGEDYICPNCTI [E28I] and GYDPNALYCICRQPHNNRFMICCDRCEHWFHGDCVGISEARGRLLERNGEDYICPNCTI [E28H] are within error of each other in abundance fitness: -0.235 ± 0.12 for the first, -0.075 ± 0.084 for the second.

GYDPNALYCICRQPHNNRFMICCDRCEWWFHGDCVGISEARGRLLERNGEDYICPNCTI [E28W] and GYDPNALYCICRQPHNNRFMICCDRCELWFHGDCVGISEARGRLLERNGEDYICPNCTI [E28L] are within error of each other in abundance fitness: -0.019 ± 0.098 for the first, -0.055 ± 0.055 for the second.

GYDPNALYCICRQPHNNRFMICCDRCENWFHGDCVGISEARGRLLERNGEDYICPNCTI [E28N] and GYDPNALYCICRQPHNNRFMICCDRCESWFHGDCVGISEARGRLLERNGEDYICPNCTI [E28S] are within error of each other in abundance fitness: -0.231 ± 0.17 for the first, -0.106 ± 0.057 for the second.

GYDPNALYCICRQPHNNRFMICCDRCECWFHGDCVGISEARGRLLERNGEDYICPNCTI [E28C] and GYDPNALYCICRQPHNNRFMICCDRCEAWFHGDCVGISEARGRLLERNGEDYICPNCTI [E28A] are within error of each other in abundance fitness: -0.032 ± 0.11 for the first, -0.153 ± 0.076 for the second.

Going from GYDPNALYCICRQPHNNRFMICCDRCEPWFHGDCVGISEARGRLLERNGEDYICPNCTI [E28P] to GYDPNALYCICRQPHNNRFMICCDRCEDWFHGDCVGISEARGRLLERNGEDYICPNCTI [E28D], the abundance fitness rises from -0.742 ± 0.13 to 0.125 ± 0.13.

GYDPNALYCICRQPHNNRFMICCDRCETWFHGDCVGISEARGRLLERNGEDYICPNCTI [E28T] and GYDPNALYCICRQPHNNRFMICCDRCEFWFHGDCVGISEARGRLLERNGEDYICPNCTI [E28F] are within error of each other in abundance fitness: 0.065 ± 0.066 for the first, -0.028 ± 0.07 for the second.

GYDPNALYCICRQPHNNRFMICCDRCEMWFHGDCVGISEARGRLLERNGEDYICPNCTI [E28M] and GYDPNALYCICRQPHNNRFMICCDRCEYWFHGDCVGISEARGRLLERNGEDYICPNCTI [E28Y] are within error of each other in abundance fitness: -0.056 ± 0.12 for the first, -0.122 ± 0.09 for the second.

GYDPNALYCICRQPHNNRFMICCDRCEVWFHGDCVGISEARGRLLERNGEDYICPNCTI [E28V] and GYDPNALYCICRQPHNNRFMICCDRCEKWFHGDCVGISEARGRLLERNGEDYICPNCTI [E28K] are within error of each other in abundance fitness: 0.015 ± 0.058 for the first, 0.045 ± 0.065 for the second.

GYDPNALYCICRQPHNNRFMICCDRCEQWFHGDCVGISEARGRLLERNGEDYICPNCTI [E28Q] and GYDPNALYCICRQPHNNRFMICCDRCEEWAHGDCVGISEARGRLLERNGEDYICPNCTI [F30A] are within error of each other in abundance fitness: -0.198 ± 0.1 for the first, -0.283 ± 0.086 for the second.

GYDPNALYCICRQPHNNRFMICCDRCEEWCHGDCVGISEARGRLLERNGEDYICPNCTI [F30C] gave an abundance fitness of -0.08 ± 0.081.
